Source: patent US20240240209A1, “SYNTHESIS OF ENANTIOPURE CIS-A-IRONE FROM A RENEWABLE CARBON SOURCE” (Agency for Science, Technology and Research, priority 2021, published 2024)
Changes are numbered by the printed parent chain.

B1: A14M (protein)
chain: MPQEARTPQQQVTMDEVGDWYDKFGEVYHLTLGESVHCGLWFPPDAPVPQDMELVTMSSQAQDRFTDYLIETLDPKAGQHLLDIGCGTGRPALKAARQRGIAVTGVAVSKEQIAAANRLAAGHGLTERLTFEVADAMRLPYEDESFDCAWAIESLDHMDRAKALGEAWRVLKPGGDLLVAEEVVTEELTEPETALFETLFALNVPPRLGEFFDIVSGAGFHTLSLKDLSADLAMTMNVFALGVYSRRAEFTERFGAEFVDGLLAGLGSAQETVIRKTRFFMATLRKPAV
modifications: Modified from pMT1
B2: T185V (protein)
chain: B1 chain with M14A, T185V
modifications: Modified from pMT1
B3: M137D (protein)
chain: B1 chain with M14A, M137D
modifications: Modified from pMT1
B4: K94R (protein)
chain: B1 chain with M14A, K94R
modifications: Modified from pMT1
B5: S268Q (protein)
chain: B1 chain with M14A, S268Q
modifications: Modified from pMT1
B6: S268K (protein)
chain: B1 chain with M14A, S268K
modifications: Modified from pMT1
B7: A14L (protein)
chain: B1 chain with M14L
modifications: Modified from pMT1
B8: M137A (protein)
chain: B1 chain with M14A, M137A
modifications: Modified from pMT1
B9: A95I (protein)
chain: B1 chain with M14A, A95I
modifications: Modified from pMT1
B10: M137N (protein)
chain: B1 chain with M14A, M137N
modifications: Modified from pMT1
B11: A269G (protein)
chain: B1 chain with M14A, A269G
modifications: Modified from pMT1
B12: H123N (protein)
chain: B1 chain with M14A, H123N
modifications: Modified from pMT1
B13: K94V (protein)
chain: B1 chain with M14A, K94V
modifications: Modified from pMT1
B14: Q11P (protein)
chain: B1 chain with Q11P, M14A
modifications: Modified from pMT1
B15: S268L (protein)
chain: B1 chain with M14A, S268L
modifications: Modified from pMT1
B16: Q11M (protein)
chain: B1 chain with Q11M, M14A
modifications: Modified from pMT1
B17: M137S (protein)
chain: B1 chain with M14A, M137S
modifications: Modified from pMT1
B18: A107G (protein)
chain: B1 chain with M14A, A107G
modifications: Modified from pMT1
B19: T185L (protein)
chain: B1 chain with M14A, T185L
modifications: Modified from pMT1
B20: A269Y (protein)
chain: B1 chain with M14A, A269Y
modifications: Modified from pMT1
B21: S268R (protein)
chain: B1 chain with M14A, S268R
modifications: Modified from pMT1
B22: A95V (protein)
chain: B1 chain with M14A, A95V
modifications: Modified from pMT1
B23: A107S (protein)
chain: B1 chain with M14A, A107S
modifications: Modified from pMT1
B24: L195V (protein)
chain: B1 chain with M14A, L195V
modifications: Modified from pMT1
B25: M137H (protein)
chain: B1 chain with M14A, M137H
modifications: Modified from pMT1
B26: A14T (protein)
chain: B1 chain with M14T
modifications: Modified from pMT1
B27: Q11L (protein)
chain: B1 chain with Q11L, M14A
modifications: Modified from pMT1
B28: A14P (protein)
chain: B1 chain with M14P
modifications: Modified from pMT1
B29: A269R (protein)
chain: B1 chain with M14A, A269R
modifications: Modified from pMT1
B30: A95L (protein)
chain: B1 chain with M14A, A95L
modifications: Modified from pMT1
B31: A14G (protein)
chain: B1 chain with M14G
modifications: Modified from pMT1
B32: A269L (protein)
chain: B1 chain with M14A, A269L
modifications: Modified from pMT1
B33: Q11V (protein)
chain: B1 chain with Q11V, M14A
modifications: Modified from pMT1
B34: A14R (protein)
chain: B1 chain with M14R
modifications: Modified from pMT1

Experiment: In-vivo cis-α-irone production screening of pMT7 and pMT12 mutants
Assay type: cell-based, Escherichia coli
Settings: mutations made to pMT12; normalized to pMT12 (=1)
Text: Q60 was identified as another possible mutation site.
FIGS. 24a and 24b show the in-vivo and in-vitro cis-α-irone production of other possible single mutations to pMT12. The in-vitro results in FIG. 24b validate the mutations and in-vivo results in FIG. 24a. The mutations in FIG. 24 include Q11H (SEQ ID No. 23), V12R (SEQ ID No. 24), A95C (SEQ ID No. 25), H123Q (SEQ ID No. 26), E127T (SEQ ID No. 27), M137T (SEQ ID No. 28), D176V (SEQ ID No. 29), D176Y (SEQ ID No. 30). P191S (SEQ ID No. 31), P191V (SEQ ID No. 32), F212L (SEQ ID No. 33), S268H (SEQ ID No. 34), AND T272A (SEQ ID No. 35). The screening results in FIGS. 24 and 25 are semi-quantitative to identify beneficial mutants that give greater than one-fold change of irone production as compared to pMT12.
FIGS. 25a to 25c (and Table 4) show the in-vivo testing results of other possible mutations that may be made to pMT12 to improve its in-vivo production of cis-α-irone. FIGS. 25a to 25c each include two dotted lines to account for a 10% error bar to show the normalized fold change of 0.9 and 1.1.
The four plasmids were transformed into E. coli BL21 (DE3), ΔaroA, ΔaroB, ΔaroC, ΔserC or E. coli BL21 (DE3), ΔaroA, ΔaroB, ΔaroC, ΔserC, ΔmetJ strains and plated on Agar plate containing LB media (10 g, tryptone. 5 g, yeast extract. 10 g, NaCl) supplemented with appropriate antibiotics (100 mg/L ampicillin, 34 mg/L chloramphenicol, 50 mg/L kanamycin, and 100 mg/L spectinomycin). One colony was picked and inoculate into LB media with antibiotics. 1% of overnight culture was inoculated into 1 ml fresh auto-inducing chemically defined media. The chemical media contains carbon source solution: 0.5 g/L glucose, 10 g/L glycerol; inducer: 30 mM lactose and base media: 2 g/L ammonium sulfate, 4.2 g/L KH2PO4, 11.24 g/L K2HPO4, 1.7 g/L citric acid, 0.5 g/L MgSO4, and 10 mL/L trace element solution. The trace element solution (100×) contained 0.25 g/L CoCl2·6H2O, 1.5 g/L MnSO4·4H2O, 0.15 g/L CuSO4·2H2O, 0.3 g/L H3BO3, 0.25 g/L Na2MoO4·2H2O, 0.8 g/L Zn(CH3COO)2, 5 g/L Fe(III) citrate, and 0.84 g/L ethylenediaminetetra-acetic acid (EDTA) at pH 8.0. The culture was grown at 28° C. for 3 days and the products were extracted with 1 ml hexane for GCMS analysis. An example of a fed-batch process for α-ionone Is briefly described, overnight culture was inoculated into 2 L chemical media comprising the base media and 5 g/L glucose, at 37° C. and 30% DO. pH was controlled at 7 with base solution (14% ammonia and 0.5 M NaOH). Feed media (500 g/L glucose and 5 g/L MgSO4) was added into bioreactor once OD600 reached 5, at a rate of 7.15-25.75 g/h glucose for about 4-5 h until OD600 reached ˜30-40. Subsequently, 0.1 mM IPTG was added to induce the production, and feeding rate was kept at a constant rate of 10 g/h glucose, and the temperature was reduced to 30° C. DO was adjusted to 2% or 10%. Feeding was stopped at 113 h when 2 L feeding media was finished, but the culture was further incubated for 24 h. To capture the evaporated products, the exhaust was connected to 25 ml sunflower oil.

| Molecule | Fold change in in-vivo cis-α-irone production |
| --- | --- |
| B1 | 0.94 |
| B2 | 1.14 |
| B3 | 1.13 |
| B4 | 0.97 |
| B5 | 1.32 |
| B6 | 1.35 |
| B7 | 0.92 |
| B8 | 1.15 |
| B9 | 0.98 |
| B10 | 1.11 |
| B11 | 1.23 |
| B12 | 0.91 |
| B13 | 0.84 |
| B14 | 0.92 |
| B15 | 1.18 |
| B16 | 0.90 |
| B17 | 1.11 |

| Molecule | Fold change in in-vivo cis-α-irone production |
| --- | --- |
| B18 | 0.95 |
| B19 | 1.07 |
| B20 | 1.21 |
| B21 | 1.23 |
| B22 | 0.94 |
| B23 | 1.17 |
| B24 | 1.02 |
| B25 | 1.11 |
| B26 | 0.90 |
| B27 | 0.92 |
| B28 | 0.92 |
| B29 | 1.22 |
| B30 | 0.92 |
| B31 | 0.92 |
| B32 | 1.29 |
| B33 | 0.88 |
| B34 | 0.93 |
